Article PMC9022998

Key:
[1] = cycloheximide chase, anti-FLAG immunoblot, secretion rate; conditions: glycan lost; control: wild-type AAT in WT 293T cells
[2] = immunoblot of media and lysates, LMAN1 KO vs WT 293T; conditions: glycan lost; control: wild-type AAT
[3] = immunoblot of intracellular AAT in 293T lysates; conditions: glycan lost; control: wild-type AAT

Substance	expression_or_secretion [1]	other: LMAN1-dependence of secretion [2]	localisation_or_trafficking [3]
α1-antitrypsin (AAT): N70Q	no change	no change	–
α1-antitrypsin (AAT): N107Q	decreases	abolishes	increases
α1-antitrypsin (AAT): N271Q	no change	no change	–
